In US11155602B2, “Polypeptides targeting HIV fusion” (priority 2015, dated 2021):
Numbering of substitutions follows the chain as printed.

B1: 128 (protein)
chain: MGHHHHHHGGVSDVPRDLEVVAATPTSLLISWEYKVHPYRYYRITYGETGGNSPVQEFTVPSVLSSAEISGLKPGVDYTITVYAVTYGIDSSPISINYRTPGG
modifications: Adnectin
B2: 261 (protein)
chain: MGHHHHHHGGSVSDVPRDLEVVAATPTSLLISWEYKVAPWRYYRITYGETGGNSPVQEFTVPSVLSTATISGLKPGVDYTITVYAVTYGDDSAPISINYRTEID
modifications: Adnectin
B3: 304 (protein)
chain: B2 chain with P39H, W40D
modifications: Adnectin
B4: 265 (protein)
chain: B2 chain with A38H, W40Y, D90A
modifications: Adnectin
B5: 285 (protein)
chain: B2 chain with A38H, W40Y, T67S, I70L, S71R
modifications: Adnectin
B6: 284 (protein)
chain: B2 chain with A38H, W40Y, Y88S
modifications: Adnectin
B7: 296 (protein)
chain: B2 chain with P39T, W40Y
modifications: Adnectin
B8: 307 (protein)
chain: B2 chain with S28G, A38H, W40Y
modifications: Adnectin
B9: 302 (protein)
chain: B2 chain with A38H, W40Y, T67S, S71N
modifications: Adnectin
B10: 272 (protein)
chain: B2 chain with A38D, P39T, W40Y
modifications: Adnectin
B11: 130 (protein)
chain: B2 chain with K36N, A38H, P39Y, W40D, Y88D, D90V, D91H, A93S
modifications: Adnectin
B12: 306 (protein)
chain: B2 chain with A38D, P39Y, W40R
modifications: Adnectin
B13: 269 (protein)
chain: B2 chain with A38H, W40Y, E58A
modifications: Adnectin
B14: 293 (protein)
chain: B2 chain with A38H, W40Y, I70L, S71R
modifications: Adnectin
B15: 277 (protein)
chain: B2 chain with A38H, W40Y, E58D
modifications: Adnectin
B16: 295 (protein)
chain: B2 chain with P39A, W40Y
modifications: Adnectin
B17: 276 (protein)
chain: B2 chain with A38H, W40Y, S71R
modifications: Adnectin
B18: 273 (protein)
chain: B2 chain with K36E, A38H, W40Y
modifications: Adnectin
B19: 286 (protein)
chain: B2 chain with P39A
modifications: Adnectin
B20: 292 (protein)
chain: B2 chain with A38H, W40Y, S71H
modifications: Adnectin
B21: 131 (protein)
chain: B2 chain with A38H, W40Y, D91L
modifications: Adnectin
B22: 294 (protein)
chain: B2 chain with A38H, W40Y, T67S
modifications: Adnectin
B23: 309 (protein)
chain: B2 chain with A38H, W40Y, Y88H
modifications: Adnectin
B24: 280 (protein)
chain: B2 chain with A38D, P39Y, W40G
modifications: Adnectin
B25: 275 (protein)
chain: B2 chain with A38H, W40Y, E58S, D90A
modifications: Adnectin
B26: 266 (protein)
chain: B2 chain with A38H, W40Y, Y88R
modifications: Adnectin
B27: 282 (protein)
chain: B2 chain with K36S, A38H, W40Y
modifications: Adnectin
B28: 291 (protein)
chain: B2 chain with A38H, W40Y, Y88G
modifications: Adnectin
B29: 267 (protein)
chain: B2 chain with A38H, W40Y, E58D, S71R
modifications: Adnectin
B30: 283 (protein)
chain: B2 chain with A38H, W40Y, Y88D
modifications: Adnectin
B31: 308 (protein)
chain: B2 chain with A38N, P39A
modifications: Adnectin
B32: 274 (protein)
chain: B2 chain with K36R, A38H, W40Y
modifications: Adnectin
B33: 262 (protein)
chain: B2 chain with A38D, P39G
modifications: Adnectin
B34: 279 (protein)
chain: B2 chain with A38D, P39H, W40Q
modifications: Adnectin
B35: 270 (protein)
chain: B2 chain with W40Y
modifications: Adnectin
B36: 299 (protein)
chain: B2 chain with E34K, A38H, W40Y
modifications: Adnectin
B37: 263 (protein)
chain: B2 chain with A38D, P39T
modifications: Adnectin
B38: 289 (protein)
chain: B2 chain with K36G, A38H, W40Y
modifications: Adnectin
B39: 288 (protein)
chain: B2 chain with P26T, A38D, P39Y, W40H
modifications: Adnectin
B40: 281 (protein)
chain: B2 chain with E34K, K36G, A38H, W40Y
modifications: Adnectin
B41: 305 (protein)
chain: B2 chain with A38D, W40Y
modifications: Adnectin
B42: 303 (protein)
chain: B2 chain with A38H, W40Y, T60K
modifications: Adnectin
B43: 278 (protein)
chain: B2 chain with P39R
modifications: Adnectin
B44: 297 (protein)
chain: B2 chain with A38D
modifications: Adnectin
B45: 287 (protein)
chain: B2 chain with P39T
modifications: Adnectin
B46: 271 (protein)
chain: B2 chain with A38D, P39G, W40Y
modifications: Adnectin
B47: 298 (protein)
chain: B2 chain with A38D, P39Y, W40Q
modifications: Adnectin
B48: 129 (protein)
chain: MGVSDVPRDLEVVAATPTSLLISWEYKVHPYRYYRITYGETGGNSPVQEFTVPSVLSSAEISGLKPGVDYTITVYAVTYGIDSPPISINYRTEIDKPSQHHHHHH
modifications: Adnectin
B49: 115 (protein)
chain: B48 chain with H29N, P30N, S58T, E60T, I81V, D82H, P84S
modifications: Adnectin
B50: 132 (protein)
chain: MGHHHHHHGGSVSDVPRDLEVVAATPTSLLISWDAPAVTVEEYYIGYYVEFEPSSYQWFTVPGSKSTATISGLKPGVEYSIYVNAVTGMGMQPEMSLPISINYRTEGS
modifications: Adnectin
B51: 301 (protein)
chain: MGHHHHHHGGSVSDVPRDLEVVAATPTSLLISWEYKVHPYRYYRITYGETGGNSPVQEFTVPSVLSTATISGLKPGVDYTITVYAVTHGDDFAPISINYRTEMLI
modifications: Adnectin

system: NL-Rluc virus; assay: Combinectin potency assay: antiviral EC50, NL-Rluc virus in MT-2 cells, luciferase readout; assay type: cell-based, HIV-1; conditions: Anti-N17 Adnectin, Table 3
Outline: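 Peptides, serially diluted threefold over 11 points in triplicate, were exposed for 4–5 days to MT-2 cells preinfected 1 h with NL-Rluc virus (MOI 0.01). Replication read out as Renilla luciferase signal, with EC50 derived against untreated infected controls.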

Molecule	EC50 [nM]
B1	18
B2	> 1000
B3	> 1000
B4	63
B5	397
B6	> 1000
B7	> 1000
B8	205
B9	4
B10	> 1000
B11	42
B12	> 1000
B13	184
B14	> 1000
B15	> 1000
B16	> 1000
B17	16
B18	> 1000
B19	> 1000
B20	52
B21	5
B22	101
B23	> 1000
B24	> 1000
B25	180
B26	> 1000

Molecule	EC50 [nM]
B27	56
B28	> 1000
B29	> 1000
B30	> 1000
B31	> 1000
B32	115
B33	> 1000
B34	> 1000
B35	> 1000
B36	> 1000
B37	> 1000
B38	> 1000
B39	> 1000
B40	> 1000
B41	83
B42	109
B43	> 1000
B44	30
B45	> 1000
B46	> 1000
B47	> 1000
B48	11
B49	130
B50	5
B51	> 1000
